Assay results as given in US20240050583A1 (HARBOUR BIOMED SHANGHAI, published 2024).
Each block holds one binder with its values, some of them ahead of it.

Experiments:
[1] = biological target: T1, human 5T4 (human, UniProt Q13641 32-420); experiment: flow cytometry (FACS) on HCC1954 cells highly expressing human 5T4
T1 construct: whole, on cells; also called trophoblast glycoprotein; TPBG
T1 sequence (looked up): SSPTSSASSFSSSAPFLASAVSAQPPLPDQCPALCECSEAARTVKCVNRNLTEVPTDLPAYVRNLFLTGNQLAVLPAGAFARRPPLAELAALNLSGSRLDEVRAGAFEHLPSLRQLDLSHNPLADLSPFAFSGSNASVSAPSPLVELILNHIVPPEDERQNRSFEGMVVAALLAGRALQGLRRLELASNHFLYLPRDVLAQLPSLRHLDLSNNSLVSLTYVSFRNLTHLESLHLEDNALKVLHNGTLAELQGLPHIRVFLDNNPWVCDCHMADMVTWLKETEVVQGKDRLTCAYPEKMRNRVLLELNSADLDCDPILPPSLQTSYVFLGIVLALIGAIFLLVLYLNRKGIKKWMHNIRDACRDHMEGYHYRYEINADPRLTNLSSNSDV
Procedure: The binding ability of the antibody molecules to a human breast cancer cell strain HCC1954 (ATCC, CRL-2338) highly expressing human 5T4 was determined by flow cytometry FACS. Specifically, the cell density was adjusted to 1×10⁶ cells/mL. The cells were seeded in a 96-well V-bottom plate (Corning, #3894) at 100 μL/well, followed by the addition of test antibodies diluted in a 3-fold gradient at a concentration that was 2 times the final concentration, each at 100 μL/well. The cells were incubated at 4° C. for 1 h away from light. Thereafter, the cells in each well were rinsed twice with 100 μL of pre-cooled PBS, and centrifuged at 500 g at 4° C. for 5 min, and then the supernatant was discarded. Thereafter, a fluorescent secondary antibody (Alexa Fluor 488-conjugated AffiniPure Goat Anti-Human IgG, Fcγ Fragment Specific, Jackson ImmunoResearch Inc., #109-545-098, diluted in a 1:500 ratio) was added at 100 μL/well, and the plate was incubated at 4° C. for 30 min away from light. The cells in each well were then rinsed twice with 100 μL of pre-cooled PBS and centrifuged at 500 g at 4° C. for 5 min, and then the supernatant was discarded. Finally, the cells in each well were resuspended in 200 μL of pre-cooled PBS. Fluorescence signal values were read using a BD FACS CANTOII flow cytometer, and the data were processed and analyzed using FlowJo v10 (FlowJo, LLC) software.

[2] = biological target: T2, human CTLA4 (human, UniProt P16410 36-223); experiment: flow cytometry (FACS) on HEK293/hCTLA4 cells
T2 construct: whole, on cells; HEK293T cell strain HEK293/hCTLA4 highly expressing human CTLA4 (constructed by Harbour BioMed); also called hCTLA4; CD152
T2 sequence (looked up): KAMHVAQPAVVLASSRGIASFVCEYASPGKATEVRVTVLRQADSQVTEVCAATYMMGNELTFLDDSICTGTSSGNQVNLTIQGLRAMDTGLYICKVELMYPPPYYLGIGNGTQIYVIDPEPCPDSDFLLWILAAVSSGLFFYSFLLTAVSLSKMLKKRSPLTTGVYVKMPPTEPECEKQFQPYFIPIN
Procedure: The binding ability of the antibody molecules to an HEK293T cell strain HEK293/hCTLA4 (constructed by Harbour BioMed) highly expressing human CTLA4 and other cells was determined by flow cytometry FACS. Specifically, the HEK293/hCTLA4 cells were digested and resuspended in a DMEM medium, with the cell density adjusted to 1×10⁶ cells/mL. HEK293 cells not expressing CTLA4 were used as a negative control. Thereafter, the cells were seeded in a 96-well V-bottom plate (Corning, #3894) at 100 μL/well and centrifuged at 4° C. for 5 min, and the supernatant was discarded. Then, the serially diluted antibody molecules were added to the 96-well plate at 100 μL/well, and the mixtures were well mixed. […]
Then, the cells in each well were rinsed twice with 100 μL of pre-cooled FACS buffer (PBS buffer containing 0.5% BSA) and centrifuged at 500 g at 4° C. for 5 min, and then the supernatant was discarded. […] Fluorescence signal values were read using a BD FACS CANTOII flow cytometer, and the data were processed and analyzed using FlowJo v10 (FlowJo, LLC) software. The data were processed and analyzed by plotting using GraphPad Prism 8 software, and binding curves of the antibodies to target cells, EC₅₀ values and other parameters were obtained through four-parameter nonlinear fitting.

[3] = biological target: T3, human BCMA (human, UniProt Q02223 1-184); experiment: flow cytometry (FACS) on NCI-H929 cells
T3 construct: whole, on cells; also called hBCMA; tumor necrosis factor receptor superfamily member 17
T3 sequence (looked up): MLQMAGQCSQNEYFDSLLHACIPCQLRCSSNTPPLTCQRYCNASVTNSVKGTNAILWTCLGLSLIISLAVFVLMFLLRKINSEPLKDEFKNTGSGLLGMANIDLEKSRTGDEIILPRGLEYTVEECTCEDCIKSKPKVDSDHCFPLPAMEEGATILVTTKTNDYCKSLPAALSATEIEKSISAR

[4] = biological target: T3, human BCMA; experiment: flow cytometry (FACS) on HEK293T-hBCMA and NCI-H929 cells, legend of FIG. 32
[5] = biological target: T3, human BCMA; experiment: flow cytometry (FACS) on HEK293T-hBCMA cells

B1: HCAb PR004432 (antibody, human IgG1, V domains shown)
VH: EVQLQQSGPGLVKPSQTLSLTCAISGDSVSNNYAAWNWIRQSPSRGLEWLGRTYYRSKWYNDYAVSVKSRITINPDTSKNQFSLQLNRVTPEDTAVYYCARDNYYGSGSPPVDALDIWGQGTMVTVSS
notes: Fully human heavy-chain-only antibody with human IgG1 hinge and Fc; also called 1041P014H2; anti-5T4 HCAb antibody PR004432
binding result [1]: binds

B2: PR004432-ADC (antibody, human IgG1, V domains shown)
VH: EVQLQQSGPGLVKPSQTLSLTCAISGDSVSNNYAAWNWIRQSPSRGLEWLGRTYYRSKWYNDYAVSVKSRITINPDTSKNQFSLQLNRVTPEDTAVYYCARDNYYGSGSPPVDALDIWGQGTMVTVSS
modifications: mc-vc-PAB-MMAE coupled to Cys-220 (Eu numbering; 97.12% of the site coupled)
notes: Purified coupling product of HCAb PR004432 with mc-vc-PAB-MMAE, main component DAR=2; also called coupling product PR004432-ADC
binding result [1]: binds

B3: HCAb PR000020 (antibody, human IgG1, V domains shown)
VH: EVQLVETGGGLIQPGGSLRLSCAASGLNVSRHYLSWVRQAPGKGLEWVAVIYSGGGIEYVDSVKGRFTISRDNANNTLYLQMRSLRTEDSAVYYCARAIPRPHGSDIWGQGTMVTVSS
notes: Fully human heavy-chain-only antibody (VH, human IgG1 hinge, CH2, CH3), dimer of two heavy chains, no light chain; also called CL24; anti-CTLA4 HCAb antibody PR000020
binding result [2]: binds

B4: PR000020-ADC (antibody, human IgG1, V domains shown)
VH: EVQLVETGGGLIQPGGSLRLSCAASGLNVSRHYLSWVRQAPGKGLEWVAVIYSGGGIEYVDSVKGRFTISRDNANNTLYLQMRSLRTEDSAVYYCARAIPRPHGSDIWGQGTMVTVSS
modifications: mc-vc-PAB-MMAE coupled to C124 (Cys-220 according to Eu numbering)
notes: Purified coupling product of HCAb PR000020 with mc-vc-PAB-MMAE, main component DAR=2; also called coupling product PR000020-ADC
binding result [2]: binds

B5: PR005744-ADC (bispecific antibody, human IgG1, kappa)
chain 1: QVQLVESGGGVVQPGRSLRLSCAATGFTFSSYGMYWVRQAPGKGLEWVAAIWNDGSNNYYADSVKGRFTISRDDSKNTLNLQMNSLRAEDTAMYYCARDRLPMASLRYFDWLGVMDAWGQGTSVTVSSASTKGPSVFPLAPSSKSTSGGTAALGCLVKDYFPEPVTVSWNSGALTSGVHTFPAVLQSSGLYSLSSVVTVPSSSLGTQTYICNVNHKPSNTKVDKKVEPKSC
chain 2: not shown
modifications: mc-vc-PAB-MMAE coupled to Cys-220 (Eu numbering) of the linker peptide (99.07% of the site coupled)
notes: Coupling product of PR005744 with mc-vc-PAB-MMAE; also called coupling product PR005744-ADC
binding result [3]: binds

B6: PR004433-ADC (antibody, human IgG1, V domains shown)
VH: EVQLVETGGGLIQPGGSLRLSCAASGFTVSDSYMTWVRQAPGKGLEWVSVIFSGGRTYYSDSVKGRFTISRDNAKNTLYLQMNSLRAEDTALYYCARRNYDDTRGTDVFDIWGQGTMVTVSS
modifications: mc-vc-PAB-MMAE coupled to Cys-220 (Eu numbering; 98% of the site coupled)
notes: Coupling product of HCAb PR004433 with mc-vc-PAB-MMAE, main component DAR=2; also called coupling product PR004433-ADC
binding result [4]: binds

Now from value to binder:

binding result [3]: binds
B7: PR004433-PROTAC (antibody, human IgG1, V domains shown)
VH: EVQLVETGGGLIQPGGSLRLSCAASGFTVSDSYMTWVRQAPGKGLEWVSVIFSGGRTYYSDSVKGRFTISRDNAKNTLYLQMNSLRAEDTALYYCARRNYDDTRGTDVFDIWGQGTMVTVSS
modifications: BRD4 protein degrading agent (PROTAC GNE-987 with a disulfide-containing linker) coupled by a disulfide bond to cysteine, Cys-220 site (Eu numbering) as the filing aims
notes: Coupling product without HIC purification; DAR=2 component 66.4%, naked antibody 28.4%; also called coupling product PR004433-PROTAC

binding result [3]: binds
B8: HCAb PR006468 (antibody, V domains shown)
VH: EVQLVETGGGLIQPGGSLRLSCAASGFTVSDSYMTWVRQAPGKGLEWVSVIFSGGRTYYSDSVKGRFTISRDNAKNTLYLQMNSLRAEDTALYYCARRNYDDTRGTDVFDIWGQGTMVTVSS

binding result [3]: binds
B9: PR006468-ADC (antibody, V domains shown)
VH: EVQLVETGGGLIQPGGSLRLSCAASGFTVSDSYMTWVRQAPGKGLEWVSVIFSGGRTYYSDSVKGRFTISRDNAKNTLYLQMNSLRAEDTALYYCARRNYDDTRGTDVFDIWGQGTMVTVSS
modifications: mc-vc-PAB-MMAE coupled to Cys1 (first cysteine) of the mouse IgG2c hinge region (90.8% of the site coupled)
notes: Purified coupling product of PR006468 with mc-vc-PAB-MMAE, DAR=2 component 95.5%; also called coupling product PR006468-ADC

binding result [5]: binds
B10: HCAb PR001046 (antibody, human IgG1, V domains shown)
VH: EVQLVETGGGLIQPGGSLRLSCAASGFTVSDNYMTWVRQAPGKGLEWVSVIFSGGNTYYADSVKGRFTISRDNAKNTLYLQMNSLRAEDTALYYCARRNYDDTRGTDVFDIWGQGTMVTVSS
notes: Fully human heavy-chain-only antibody with human IgG1 hinge and Fc; also called 1005P63B7; anti-BCMA HCAb antibody PR001046

binding result [5]: binds
B11: PR001046-ADC (antibody, human IgG1, V domains shown)
VH: EVQLVETGGGLIQPGGSLRLSCAASGFTVSDNYMTWVRQAPGKGLEWVSVIFSGGNTYYADSVKGRFTISRDNAKNTLYLQMNSLRAEDTALYYCARRNYDDTRGTDVFDIWGQGTMVTVSS
modifications: mc-vc-PAB-MMAE coupled mainly to the cysteine at site 127 (Cys-220 according to Eu numbering)
notes: Purified coupling product of HCAb PR001046 with mc-vc-PAB-MMAE, main component DAR=2; also called coupling product PR001046-ADC

binding result [3]: binds
B12: PR006321 (antibody, V domains shown)
VH: EVQLVETGGGLIQPGGSLRLSCAASGFTVSDSYMTWVRQAPGKGLEWVSVIFSGGRTYYSDSVKGRFTISRDNAKNTLYLQMNSLRAEDTALYYCARRNYDDTRGTDVFDIWGQGTMVTVSS
notes: also called PR004433 variant molecule; Hinge10_7
